Tests used:
[1] = target: pHipTLp (HipTLp, Lpg2370) (Legionella pneumophila, UniProt Q5ZSZ6); test: biochemical
[2] = target: co-expressed 6×His-tagged Lpg2369–Lpg2370 (HipTLp–HipSLp) complex (Legionella pneumophila) (UniProt Q5ZSZ7); test: ITC
[3] = target: HipTLp (Lpg2370), 6×His-tagged, expressed alone (autophosphorylated, pHipTLp) (Legionella pneumophila) (UniProt Q5ZSZ6); test: ITC

Compound `Nc1ncnc2c1ncn2[C@@H]1O[C@H](COP(=O)(O)OP(=O)(O)NP(=O)(O)O)[C@@H](O)[C@H]1O` [AMP–PNP] has a Kd [1] of roughly 70000 nM.
With “HipBLp (Lpg2368) (from UniProt Q5ZSZ8 1-75) (natural protein)” the Kd [2] was 1500 nM.
With “HipSLp (Lpg2369), untagged wild type (6×His-tag cleaved with TEV protease) (from UniProt Q5ZSZ7 1-102) (natural protein)” the Kd [3] was 42 nM.

Reference: PMC9325769 (Nature Communications, 2022)
